Reference: patent US20200339702A1 (ULTRAHUMAN THIRTEEN, published 2020)
Substitutions are numbered along the chain they refer to. Names and notes keep the numbering of the source.

T1: rhesus monkey ERBB3 His tag, monomeric (rhesus monkey (Macaca mulatta), UniProt P21860 20-643 (human entry), limits assumed)
T1 chain: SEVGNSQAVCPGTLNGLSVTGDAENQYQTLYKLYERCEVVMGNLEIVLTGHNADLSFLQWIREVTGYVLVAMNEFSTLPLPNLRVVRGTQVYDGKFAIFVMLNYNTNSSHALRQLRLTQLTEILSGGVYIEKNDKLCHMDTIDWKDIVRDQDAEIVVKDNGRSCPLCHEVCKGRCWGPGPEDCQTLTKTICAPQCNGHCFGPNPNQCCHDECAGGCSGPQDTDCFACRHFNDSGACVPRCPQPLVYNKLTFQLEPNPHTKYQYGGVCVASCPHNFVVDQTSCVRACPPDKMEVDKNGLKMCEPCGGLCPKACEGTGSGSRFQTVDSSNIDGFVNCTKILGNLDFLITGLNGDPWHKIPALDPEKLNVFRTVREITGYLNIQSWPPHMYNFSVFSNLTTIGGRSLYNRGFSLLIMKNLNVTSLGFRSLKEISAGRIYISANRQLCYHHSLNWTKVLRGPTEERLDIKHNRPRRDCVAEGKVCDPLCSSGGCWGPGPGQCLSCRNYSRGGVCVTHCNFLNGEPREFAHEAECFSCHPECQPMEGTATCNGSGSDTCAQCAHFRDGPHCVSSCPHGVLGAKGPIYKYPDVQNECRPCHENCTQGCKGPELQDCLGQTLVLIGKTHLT

T2: rhesus ERBB3 on transiently transfected HEK-293 cells (rhesus monkey (Macaca mulatta), UniProt P21860 20-1342 (human entry))
T2 construct: also called rhesus ERBB3+ HEK-293 cells
T2 chain: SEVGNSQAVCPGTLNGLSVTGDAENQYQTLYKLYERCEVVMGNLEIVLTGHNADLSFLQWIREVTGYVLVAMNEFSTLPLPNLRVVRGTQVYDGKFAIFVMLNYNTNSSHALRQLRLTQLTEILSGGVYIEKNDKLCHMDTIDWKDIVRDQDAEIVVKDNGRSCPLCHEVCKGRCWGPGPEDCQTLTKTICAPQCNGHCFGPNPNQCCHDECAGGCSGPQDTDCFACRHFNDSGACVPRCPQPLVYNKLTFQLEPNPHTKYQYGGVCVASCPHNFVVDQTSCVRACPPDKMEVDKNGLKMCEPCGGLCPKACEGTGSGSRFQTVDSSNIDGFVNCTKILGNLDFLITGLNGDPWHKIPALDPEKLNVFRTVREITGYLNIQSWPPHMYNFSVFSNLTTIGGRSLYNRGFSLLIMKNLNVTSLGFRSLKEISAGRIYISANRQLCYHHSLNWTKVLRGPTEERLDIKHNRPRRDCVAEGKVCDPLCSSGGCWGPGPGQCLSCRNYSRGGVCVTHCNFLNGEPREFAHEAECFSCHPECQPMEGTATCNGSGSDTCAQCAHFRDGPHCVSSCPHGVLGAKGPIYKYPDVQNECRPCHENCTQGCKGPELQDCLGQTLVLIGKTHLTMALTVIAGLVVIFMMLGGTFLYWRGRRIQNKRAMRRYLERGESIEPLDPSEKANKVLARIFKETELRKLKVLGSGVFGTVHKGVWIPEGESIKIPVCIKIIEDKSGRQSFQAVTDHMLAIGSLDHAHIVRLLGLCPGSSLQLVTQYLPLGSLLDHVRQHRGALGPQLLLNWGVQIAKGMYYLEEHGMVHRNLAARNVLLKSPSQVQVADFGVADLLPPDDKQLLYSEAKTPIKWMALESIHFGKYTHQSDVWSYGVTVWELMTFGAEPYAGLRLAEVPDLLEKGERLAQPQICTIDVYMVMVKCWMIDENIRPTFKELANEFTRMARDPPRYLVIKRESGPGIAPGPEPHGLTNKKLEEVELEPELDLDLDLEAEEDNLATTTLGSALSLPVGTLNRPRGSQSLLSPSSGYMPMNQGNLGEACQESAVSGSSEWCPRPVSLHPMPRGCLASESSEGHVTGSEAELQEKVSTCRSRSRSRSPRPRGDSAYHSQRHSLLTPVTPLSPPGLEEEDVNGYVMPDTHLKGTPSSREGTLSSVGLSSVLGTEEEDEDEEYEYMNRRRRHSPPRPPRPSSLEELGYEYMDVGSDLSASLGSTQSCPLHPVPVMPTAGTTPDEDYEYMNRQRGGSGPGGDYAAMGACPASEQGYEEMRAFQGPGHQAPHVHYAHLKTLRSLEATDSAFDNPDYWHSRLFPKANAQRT

T3: rhesus monkey ERBB3 human Fc tagged recombinant protein (rhesus monkey (Macaca mulatta), UniProt P21860 20-643 (human entry), limits assumed)
T3 construct: also called rhesus ERBB3-Fc; rhERBB3
T3 chain: T1 chain

B1: MH3 IgG1null (antibody, V domains shown)
VH: QVQLVESGGGLVKPGGSLRLSCAASGFTFSDYSMSWIRQAPGKGLEWVSTISDSGSTIYYADSVKGRFTISRDNAKNSLYLQMNSLRAEDTAVYYCAREWGDYDGFDFWGQGTLVTVSS
VL: DIQMTQSPSSLSASVGDRVTITCRASQSISSYLSWYQQKPGKAPKLLIYAASSLQSGVPSRFSGSGSGTDFTLTISSLQPEDFATYYCLQYDSTPLTFGGGTKVEIK
notes: Designer (Maximally Humanized) clone; Human IgG1null and human Ckappa
B2: h24C05 IgG1 (antibody, V domains shown)
VH: B1 VH with S33A, S54G, S56T, T57Y, I58T, A61P, S63N, F108Y
VL: B1 VL with S28E, S31G, Y36F, L46S, S53T, Q55D, T94Y, L96Y
notes: Human IgG1 and human Ckappa; also called humanized 24C05
B3: h24C05 IgG1null (antibody, V domains shown)
VH: B1 VH with S33A, S54G, S56T, T57Y, I58T, A61P, S63N, F108Y
VL: B1 VL with S28E, S31G, Y36F, L46S, S53T, Q55D, T94Y, L96Y
notes: Human IgG1null (L234A, L235A, G237A) and human Ckappa; also called humanized 24C05

Experiments:
[1] = target: T4, human ERBB3 on transiently transfected HEK-293 cells (human, UniProt P21860 20-1342); assay: flow cytometry, human ERBB3-transfected HEK-293
T4 construct: also called human ERBB3+ HEK-293 cells
Description: (§1) Purified IgGs were tested in FACs for binding to human and rhesus monkey ERBB3 expressed on transiently transfected HEK-293 cells and HEK-293 wild-type cells. The IgG samples were titrated in three-fold serial dilutions starting at 500 nM to 0.008 nM. Binding of IgGs was detected with a mouse anti-human IgG conjugated to FITC. Results were analyzed by examining the Mean Fluorescence Intensity (MFI) of 10000 cells per sample in the BL-1 channel detector of a flow cytometer (Attune™ NxT Acoustic Focusing Cytometer, Invitrogen/ThermoFisher Scientific).
(§2) Antibodies to ERBB3 were analysed for concentration-dependent binding at the cell surface via flow cytometry. HEK-293 cells were transiently transfected with either human or rhesus ERBB3 full-length cDNAs. Anti-ERBB3 IgGs and an isotype control were then all tested in IgG1null format, over a concentration range of 500-0.008 nM for binding to human (FIG. 5A) and rhesus (FIG. 5B) transfected cells.

[2] = target: T1, rhesus monkey ERBB3 His tag, monomeric; assay: SPR (Biacore)
Description: (§3) Affinity (KD) of purified IgGs was determined via SPR with antigen in-solution on a Biacore® 3000 (GE). A mouse anti-human antibody (CH1 specific) was immobilized on a CM5 Sensor Chip to a level of 2000 RU in acetate buffer at pH 4.5 using amine coupling following the Wizard instructions for two channels. One channel was used for background signal correction. The standard running buffer HBS-EP pH 7.4 was used. Regeneration was performed with a single injection of 10 μl of 10 mM Glycine at pH 1.5 at […]. IgG samples were injected for 2 minutes at 50 nM at 30 μl/min followed by an off-rate of 60 seconds. The monomeric antigen (human ERBB3 His tagged or rhesus monkey ERBB3 His tag) was injected in two fold serial dilutions from 3 nM down to 0.2 nM, for 2 minutes at 30 μl/min followed by an off-rate of 300 seconds. The obtained sensorgrams were analysed using the Biacore® 3000 evaluation (BlAevaluation) software. The KD was calculated by simultaneous fitting of the association and dissociation phases to a 1:1 Langmuir binding model.

[3] = target: T5, human ERBB3 His tagged, monomeric (human, UniProt P21860 20-643, biotinylated in the Alphascreen assays (sites not given)); assay: SPR (Biacore)
T5 construct: Used unbiotinylated as Biacore analyte and biotinylated in Alphascreen; treated as one molecule; also called human ERBB3-His (Acrobiosystems); biotinylated monomeric human ERBB3
Description: as §3

[4] = target: T2, rhesus ERBB3 on transiently transfected …; assay: flow cytometry, rhesus ERBB3-transfected HEK-293
Description: as §1, §2

[5] = target: T1, rhesus monkey ERBB3 His tag, monomeric; assay: SPR (Biacore), captured IgG, monomeric ERBB3-His analyte
Description: as §3
(§4) Biacore® analyses of binding affinity were performed for all IgGs to solution-phase, monomeric human and rhesus ERBB3 proteins.

[6] = target: T5, human ERBB3 His tagged, monomeric; assay: as above
Description: as §3, §4

[7] = target: T3, rhesus monkey ERBB3 human Fc tagged …; assay: direct binding ELISA on coated rhesus ERBB3-Fc, IgG1 titrated
Description: (§5) Binding and cross-reactivity of the lead panel to the recombinant proteins was initially assessed by binding ELISA. The human ERBB3 human Fc tagged recombinant protein and the rhesus monkey ERBB3 human Fc tagged recombinant protein were coated to the surface of MaxiSorp™ flat-bottom 96 well plate at 1 μg/ml. The purified IgG samples were titrated in two fold serial dilutions starting from 500 nM to 0.008 nM and allowed to bind to the coated antigens. The Fabs were detected using mouse anti-c-myc antibody followed by donkey anti-mouse IgG conjugated to horseradish peroxidase. The IgGs were detected using the mouse anti-human IgG conjugated to horseradish peroxidase. Binding signals were visualized with 3,3′,5,5′-Tetramethylbenzidine Substrate Solution (TMB) and the absorbance measured at 450 nm.

[8] = target: T2, rhesus ERBB3 on transiently transfected …; assay: flow cytometry, rhesus ERBB3-transfected HEK-293 cells, IgG1 titrated
Description: as §1

[9] = target: T6, human ERBB3 human Fc tagged recombinant protein (human, UniProt P21860 20-643); assay: direct binding ELISA on coated human ERBB3-Fc, IgG1 titrated
T6 construct: also called human ERBB3-Fc; huERBB3
Description: as §5

[10] = target: T5, human ERBB3 His tagged, monomeric; assay: Alphascreen competition, solution phase; competitor h24C05 IgG1
human insulin = target: T7, human insulin (human, UniProt P01308 25-54; P01308 90-110, limits assumed); assay: polyreactivity ELISA on human insulin, score
T7 construct: Off-target protein in the development risk (polyreactivity) ELISA

[11] = target: T5, human ERBB3 His tagged, monomeric; assay: Alphascreen competition in solution, competitor h24C05 IgG1null, biotinylated human ERBB3-His
Description: The AlphaScreen assay (Perkin Elmer) was performed in a 25 μl final volume in 384-well white microtiter plates (Greiner). The reaction buffer contained 1×PBS pH 7.3 (Oxoid, Cat. nr. BR0014G) and 0.05% (v/v) Tween® 20 (Sigma, Cat. nr. P9416). Purified IgG samples were titrated in three fold serial dilutions starting at 100 nM final concentration and incubated with biotinylated human ERBB3-His (Acrobiosystems) at 1 nM final concentration for 20 minutes at room temperature. The parental IgG and the anti-human IgG1 Acceptor beads at were added and the mix was incubated for 1 hour at room temperature. Followed by addition of the Streptavidin Donor beads and incubation for 30 minutes at room temperature. The emission of light was measured in the EnVision multilabel plate reader (Perkin Elmer) and analysed using the EnVision manager software. Values were reported as Counts Per Second (CPS) and corrected for crosstalk.

T7 sequence (P01308 25-54 limits assumed, chain 1 of 2): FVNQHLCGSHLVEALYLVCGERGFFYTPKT
T7 sequence (P01308 90-110 limits assumed, chain 2 of 2): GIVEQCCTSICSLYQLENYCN

| Binder | maximum MFI, fold over isotype control background [1] [fold] | fold reduction in binding affinity against clone MH2 [2] [fold] | fold reduction in binding affinity against clone MH2 [3] [fold] | maximum MFI, fold over isotype control background [4] [fold] | Kd [5] [nM] | koff [5] [s⁻¹] | kon [5] [M⁻¹ s⁻¹] | Kd [6] [nM] | koff [6] [s⁻¹] | kon [6] [M⁻¹ s⁻¹] | EC50 (read off the curve) [7] [nM] | EC50 (read off the curve) [8] [nM] | EC50 (read off the curve) [9] [nM] | IC50 [10] [nM] | binding result (human insulin) | IC50 (read off the curve) [11] [nM] |
| --- | --- | --- | --- | --- | --- | --- | --- | --- | --- | --- | --- | --- | --- | --- | --- | --- |
| B1 | > 20 | ~3 | ~3 | > 20 | 0.63 | 0.011 | 1.8e+07 | 0.85 | 0.0065 | 7.6e+06 |  |  |  |  |  |  |
| B2 |  |  |  |  |  |  |  |  |  |  | ~0.1 | ~0.2 | ~0.1 | 1.25 | no binding |  |
| B3 | > 20 |  |  | > 20 | 0.18 | 0.00074 | 4.1e+06 | 0.039 | 0.00096 | 2.5e+07 |  |  |  |  |  | ~5 |
